Data on nine molecules can be found in patent publication US20040241165A1 (Takeda / Millennium, published 2004).

Assay [1] addresses human-type OT7T022 (hOT7T022) G protein-coupled receptor protein (human) (UniProt Q9GZQ6). The assay is described as follows: binding inhibition: displacement of 125I-Tyr-hRFRP-3(8) from membrane fraction of human-type OT7T022-expressing CHO cells.
Assay [2] shares this target. Briefly: cell-based or functional assay.
In assay [3] the target is T1, human-type OT7T022 (hOT7T022) G protein-coupled receptor protein (human, UniProt Q9GZQ6 1-430).
T1 construct: Expressed on CHO cells (cAMP assays); also called human OT7T022 receptor
T1 sequence (Q9GZQ6 whole entry): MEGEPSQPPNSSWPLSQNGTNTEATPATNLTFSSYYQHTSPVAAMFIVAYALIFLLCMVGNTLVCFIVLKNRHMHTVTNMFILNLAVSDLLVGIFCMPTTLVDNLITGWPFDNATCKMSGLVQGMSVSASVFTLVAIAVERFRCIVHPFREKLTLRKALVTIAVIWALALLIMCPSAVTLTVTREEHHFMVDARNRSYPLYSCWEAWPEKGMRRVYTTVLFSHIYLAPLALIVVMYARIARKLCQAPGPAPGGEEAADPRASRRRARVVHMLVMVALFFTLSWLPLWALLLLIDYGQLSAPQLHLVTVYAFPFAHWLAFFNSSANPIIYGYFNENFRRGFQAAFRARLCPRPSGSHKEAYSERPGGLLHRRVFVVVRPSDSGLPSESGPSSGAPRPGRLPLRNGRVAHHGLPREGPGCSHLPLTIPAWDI
The assay is described as follows: binding inhibition: displacement of 125I-Tyr-hRFRP-3(8) from membrane fraction of human-type OT7T022-expressing CHO cells. On the procedure: An assay buffer [50 mM Tris-HCl, pH 7.5, 5 mM EDTA, 0.1% bovine serum albumin (Sigma), 0.5 mM PMSF (Wako Purechemical Industries), 20 μg/ml leupeptin (Peptide Institute, Inc.), 0.1 μg/ml pepstatin A (Peptide Institute, Inc.), 4 μg/ml E64 (Peptide Institute, Inc.) and 10 mM MgCl₂] was prepared. With this buffer, the membrane fraction from human-type OT7T022-expressing CHO cells was diluted to give a concentration of 1 μg/25 μl. […] Sample solutions prepared, NSB and the assay buffer were dispensed into polypropylene 96-well plates in quadruplicate as total 50 μl/well. […] Twenty-five microliter of the membrane fraction solution from human-type OT7T022-expressing CHO cells was added thereto, agitated with a plate mixer and incubated at room temperature for 1.5 hr. Using a cell harvester for 96-well plates, the contents of each well were adsorbed onto a filter unit (GF/C, treated with polyethylene imine) pre-moisturized with washing buffer (50 mM Tris-HCl, pH 7.5). After washing 5 times with the washing buffer, the adsorbate was dried thoroughly. The lower part of the filter unit was sealed. Then, 50 μl of liquid scintillator was added to each well and the upper part of the filter unit was sealed. Radioactivity was measured with a Top Count (Packard), and data were analyzed in triplicate.

Assay [4] deals with T1, human-type OT7T022 (hOT7T022) G …. The assay is described as follows: cell-based or functional assay.
Assay [5] shares this target. The assay is described as follows: cell-based or functional assay. The source holds these as a separate data set.
Assay [6] has as its target G protein-coupled receptor protein rOT7T022L (rat, UniProt Q9EP86 1-432). Briefly: cell-based or functional assay.

No end group written: not given here.

human-type OT7T022 (hOT7T022) G protein-coupled receptor protein (human), sequence (Q9GZQ6 whole entry): as above
G protein-coupled receptor protein rOT7T022L, sequence (Q9EP86 whole entry): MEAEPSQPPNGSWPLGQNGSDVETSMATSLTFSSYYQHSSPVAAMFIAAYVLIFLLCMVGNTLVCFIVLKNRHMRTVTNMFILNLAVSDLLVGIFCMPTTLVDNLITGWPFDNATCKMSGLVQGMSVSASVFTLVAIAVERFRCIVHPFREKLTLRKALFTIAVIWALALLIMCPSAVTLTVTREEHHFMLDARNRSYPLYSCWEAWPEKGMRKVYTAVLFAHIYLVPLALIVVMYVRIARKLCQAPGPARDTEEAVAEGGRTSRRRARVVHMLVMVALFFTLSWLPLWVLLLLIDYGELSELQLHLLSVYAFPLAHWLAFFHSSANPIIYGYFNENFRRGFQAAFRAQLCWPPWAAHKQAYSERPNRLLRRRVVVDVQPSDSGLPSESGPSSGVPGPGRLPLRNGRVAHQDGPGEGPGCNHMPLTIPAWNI

On to “hRFRP-3 (28) (second row with this label, last row of Table 1) (peptide)”, for which the IC50 in assay [1] stood at 1.6 nM. This molecule also had a cAMP production inhibition EC50 in assay [2] of 4.1 nM.
On to SAGATANLPLRSGRNMEVSLVRRVPNLPQRF-NH2 (also called hRFRP-3 (31)) [human-type RFRP-3(31)], for which the IC50 in assay [3] turned out to be 1.3 nM. In assay [4], the “cAMP production inhibition EC50” value came to 4.8 nM.
As to NLPQRF-NH2 [Asn-Leu-Pro-Gln-Arg-Phe-NH2: hRFRP-3(6)], in assay [3], the IC50 was determined as 2.6 nM. Also, the “cAMP production inhibition EC50” value in assay [4] was 37 nM.
Taken in the same sequence, the figures for ATANLPLRSGRNMEVSLVRRVPNLPQRF-NH2 (also called hRFRP-3 (28)) [human-type RFRP-3(28)] were 1.1 nM and 5.1 nM.
Take PQRF-NH2 [PQRF amide (Pro-Gln-Arg-Phe-NH2)]: the “ED50, inhibition of intracellular cAMP increase by forskolin treatment” value in assay [5] is at least 1000 nM.
Regarding MPHSFANLPLRF-NH2 [Met-Pro-His-Ser-Phe-Ala-Asn-Leu-Pro-Leu-Arg-Phe-NH2 (MPHSFANLPLRF amide)], the “ED50, inhibition of intracellular cAMP increase by forskolin treatment” value in assay [5] is 4.5 nM. Moreover, in assay [6], the “cAMP production inhibitory effect, IC50” value was found to be 0.5 nM.
SLNFEELKDWGPKNVIKMSTPAVNKMPHSFANLPLRF-NH2 [hRFRP-1-37]: the “ED50, inhibition of intracellular cAMP increase by forskolin treatment” value in assay [5] was 21 nM.
Same read-out and setting: then SVTFQELKDWGAKKDIKMSPAPANKVPHSAANLPLRF (ends and bridges not checked) [rRFRP-1-37], with 30 nM.
Molecule PNLPQRF-NH2 [Pro-Asn-Leu-Pro-Gln-Arg-Phe-NH2: hRFRP-3(7)] showed an IC50 in assay [3] of 0.62 nM. In assay [4], the “cAMP production inhibition EC50” value turned out to be 3.2 nM.

The term IC50 denotes the concentration that gives 50% inhibition. Low values mean greater potency in that assay, high ones weaker potency in that assay.
